Measured values reported in patent US20260176324A1 (published 2026).
Residue numbers refer to the chain shown, from its start.

T1: KRAS G12V peptide on HLA-A*11:01 (human)
T1 peptide: VVGAVGVGK

T2: KRAS G12V peptide on HLA-A*11:01 (human)
T2 peptide: VVVGAVGVGK

B1: nwTCR-2563 (TCR, V domains shown)
Valpha: SQQGEEDPQALSIQEGENATMNCSYKTSINNLQWYRQNSGRGLVHLILIRSNEREKHSGRLRVTLDTSKKSSSLLITASRAADTASYFCATDRTGGYNKLIFGAGTRLAVHP
Vbeta: ETGVTQSPTHLIKTRGQQVTLRCSSQSGHNTVSWYQQALGQGPQFIFQYYREEENGRGNFPPRFSGLQFPNYSSELNVNALELDDSALYLCASSLQTGDEQYFGPGTRLTVT
B2: nwTCR-1708 (TCR, V domains shown)
Valpha: QKEVEQNSGPLSVPEGAIASLNCTYSDRGSQSFFWYRQYSGKSPELIMFIYSNGDKEDGRFTAQLNKASQYVSLLIRDSQPSDSATYLCAVNMPGNMLTFGGGTRLMVKP
Vbeta: DARVTQTPRDKVTEMGQEVTMRCQPILGHNTVFWYRQTMMQGLELLAYFRNRAPLDDSGMPKDRFSAEMPDATLATLKIQPSEPRDSAVYFCASGPEGLDNEQFFGPGTRLTVL
B3: nwTCR-0126 (TCR, V domains shown)
Valpha: AQKVTQAQTEISVVEKEDVTLDCVYETRDTTYYLFWYKQPPSGELVFLIRRNSFDEQNEISGRYSWNFQKSTSSFNFTITASQVVDSAVYFCALSDPRYSGGGADGLTFGKGTHLIIQP
Vbeta: DSGVTQTPKHLITATGQRVTLRCSPRSGDLSVYWYQQSLDQGLQFLIQYYNGEERAKGNILERFSAQQFPDLHSELNLSSLELGDSALYFCASSPRGGDSILDTQYFGPGTRLTVL
B4: nwTCR-0125 (TCR, V domains shown)
Valpha: AQKVTQAQTEISVVEKEDVTLDCVYETRDTTYYLFWYKQPPSGELVFLIRRNSFDEQNEISGRYSWNFQKSTSSFNFTITASQVVDSAVYFCARDQTGANNLFFGTGTRLTVIP
Vbeta: DVKVTQSSRYLVKRTGEKVFLECVQDMDHENMFWYRQDPGLGLRLIYFSYDVKMKEKGDIPEGYSVSREKKERFSLILESASTNQTSMYLCASSPPHLASGASTDTQYFGPGTRLTVL
B5: nwTCR-0127 (TCR, V domains shown)
Valpha: DQQVKQNSPSLSVQEGRISILNCDYTNSMFDYFLWYKKYPAEGPTFLISISSIKDKNEDGRFTVFLNKSAKHLSLHIVPSQPGDSAVYFCAGYQGGYKLSFGAGTTVTVRA
Vbeta: EAQVTQNPRYLITVTGKKLTVTCSQNMNHEYMSWYRQDPGLGLRQIYYSMNVEVTDKGDVPEGYKVSRKEKRNFPLILESPSPNQTSLYFCASSTRDRDNEQFFGPGTRLTVL
B6: nwTCR-2595 (TCR, V domains shown)
Valpha: ILNVEQSPQSLHVQEGDSTNFTCSFPSSNFYALHWYRWETAKSPEALFVMTLNGDEKKKGRISATLNTKEGYSYLYIKGSQPEDSATYLCAFNNQGGKLIFGQGTELSVKP
Vbeta: EAQVTQNPRYLITVTGKKLTVTCSQNMNHEYMSWYRQDPGLGLRQIYYSMNVEVTDKGDVPEGYKVSRKEKRNFPLILESPSPNQTSLYFCASSSGTGGGAEAFFGQGTRLTVV
B7: nwTCR-2629 (TCR, V domains shown)
Valpha: AQSVTQLDSHVSVSEGTPVLLRCNYSSSYSPSLFWYVQHPNKGLQLLLKYTSAATLVKGINGFEAEFKKSETSFHLTKPSAHMSDAAEYFCVVSVWTDKLIFGTGTRLQVFP
Vbeta: GAVVSQHPSWVICKSGTSVKIECRSLDFQATTMFWYRQFPKQSLMLMATSNEGSKATYEQGVEKDKFLINHASLTLSTLTVTSAHPEDSSFYICSANRDFGIYEQYFGPGTRLTVT
B8: nwTCR-2392 (TCR, V domains shown)
Valpha: DQQVKQNSPSLSVQEGRISILNCDYTNSMFDYFLWYKKYPAEGPTFLISISSIKDKNEDGRFTVFLNKSAKHLSLHIVPSQPGDSAVYFCAASYAGSARQLTFGSGTQLTVLP
Vbeta: GAGVSQSPSNKVTEKGKDVELRCDPISGHTALYWYRQRLGQGLEFLIYFQGNSAPDKSGLPSDRFSAERTGESVSTLTIQRTQQEDSAVYLCASSPGGNYGYTFGSGTRLTVV
B9: nwTCR-2424 (TCR, V domains shown)
Valpha: QKEVEQNSGPLSVPEGAIASLNCTYSDRGSQSFFWYRQYSGKSPELIMFIYSNGDKEDGRFTAQLNKASQYVSLLIRDSQPSDSATYLCARKKTSYDKVIFGPGTSLSVIP
Vbeta: DSGVTQTPKHLITATGQRVTLRCSPRSGDLSVYWYQQSLDQGLQFLIQYYNGEERAKGNILERFSAQQFPDLHSELNLSSLELGDSALYFCASSLGDSEQFFGPGTRLTVL
B10: nwTCR-2310 (TCR, V domains shown)
Valpha: SQQGEEDPQALSIQEGENATMNCSYKTSINNLQWYRQNSGRGLVHLILIRSNEREKHSGRLRVTLDTSKKSSSLLITASRAADTASYFCATDGGGGADGLTFGKGTHLIIQP
Vbeta: DSGVTQTPKHLITATGQRVTLRCSPRSGDLSVYWYQQSLDQGLQFLIQYYNGEERAKGNILERFSAQQFPDLHSELNLSSLELGDSALYFCASSLHRDSDTEAFFGQGTRLTVV
B11: nwTCR-2390 (TCR, V domains shown)
Valpha: B10 Valpha with G93S
Vbeta: B10 Vbeta with L95H, H96G, D100T, T101D, E102T, A103Q, F104Y, Q107P, V114L
B12: nwTCR-2561 (TCR, V domains shown)
Valpha: GNSVTQMEGPVTLSEEAFLTINCTYTATGYPSLFWYVQYPGEGLQLLLKATKADDKGSNKGFEATYRKETTSFHLEKGSVQVSDSAVYFCALPAGGGADGLTFGKGTHLIIQP
Vbeta: GAGVSQSPSNKVTEKGKDVELRCDPISGHTALYWYRQSLGQGLEFLIYFQGNSAPDKSGLPSDRFSAERTGGSVSTLTIQRTQQEDSAVYLCASSFGTSGDQYEQYFGPGTRLTVT
B13: nwTCR-2308 (TCR, V domains shown)
Valpha: KDQVFQPSTVASSEGAVVEIFCNHSVSNAYNFFWYLHFPGCAPRLLVKGSKPSQQGRYNMTYERFSSSLLILQVREADAAVYYCAGSNDYKLSFGAGTTVTVRA
Vbeta: EAQVTQNPRYLITVTGKKLTVTCSQNMNHEYMSWYRQDPGLGLRQIYYSMNVEVTDKGDVPEGYKVSRKEKRNFPLILESPSPNQTSLYFCASSTSPYNEQFFGPGTRLTVL
B14: nwTCR-2241 (TCR, V domains shown)
Valpha: ELKVEQNPLFLSMQEGKNYTIYCNYSTTSDRLYWYRQDPGKSLESLFVLLSNGAVKQEGRLMASLDTKARLSTLHITAAVHDLSATYFCAVDKAAGNKLTFGGGTRVLVKP
Vbeta: GEEVAQTPKHLVRGEGQKAKLYCAPIKGHSYVFWYQQVLKNEFKFLISFQNENVFDETGMPKERFSAKCLPNSPCSLEIQATKLEDSAVYFCASSPHHRYEQYFGPGTRLTVT
B15: nwTCR-1862 (TCR, V domains shown)
Valpha: GEDVEQSLFLSVREGDSSVINCTYTDSSSTYLYWYKQEPGAGLQLLTYIFSNMDMKQDQRLTVLLNKKDKHLSLRIADTQTGDSAIYFCAERGTDSWGKLQFGAGTQVVVTP
Vbeta: GAVVSQHPSWVICKSGTSVKIECRSLDFQATTMFWYRQFPKQSLMLMATSNEGSKATYEQGVEKDKFLINHASLTLSTLTVTSAHPEDSSFYICSARFANYYEQYFGPGTRLTVT

Target: T1, KRAS G12V peptide on HLA-A*11:01
Test: cytokine release
Experimental: (§1) The affinity assay of TCR-T cells was performed as follows. Antigen-presenting cells (HLA-A*11:01 overexpressing T2 cells or K562 cells) were collected, and counted. […] 1 mL of cell suspension was added to each well of a 24-well plate, respectively. […] The cells were incubated in an incubator (37° C., 5% CO₂) for 2 h. After incubation, the antigen-presenting cells were collected and washed, and 100 μl of the antigen-presenting cells at 1E6/mL were added to corresponding wells of 96-well plates. […] Various nwTCR-T cells were co-cultured with the antigen-presenting cells (37° C., 5% CO₂) for 16 h respectively.

Binding result, recognises:
B1, B2, B3, B4, B5

Target: T2, KRAS G12V peptide on HLA-A*11:01
Test: cytokine release
Experimental: as §1

Binding result, recognises:
B6

Target: T1, KRAS G12V peptide on HLA-A*11:01
Test: multimer staining

Binding result, recognises:
B7, B8, B9, B10, B11, B12, B6

Target: T2, KRAS G12V peptide on HLA-A*11:01
Test: multimer staining

Binding result, recognises:
B13, B1, B14, B2, B3, B4, B5, B15
